The supplement of paper PMC9112550, “Optimization of the antimicrobial peptide Bac7 by deep mutational scanning” (BMC Biology, 2022)

Test system: Escherichia coli TOP10
Assay: shrunken log2 fold change of peptide-encoding DNA abundance (4.5 h post-induction vs induction); higher = less antimicrobial activity (less host growth inhibition)
Details: time post-induction: 4.5 h; library: site-saturation at positions 5, 18, 19, 20
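Note: peptides expressed intracellularly from a pBAD plasmid library in pooled LB shake-flask culture, induced with 0.3% L-arabinose, DNA abundance read by NGS, three biological replicates, DESeq2 with apeglm shrinkage.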

Sequence	shrunken log2 fold change
RRIRARPPRLPRPRPRPWRQPRP	0.0426
RRIRWRPPRLPRPRPRPREQPRP	0.349
RRIRARPPRLPRPRPRPNLTPRP	0.287
RRIRHRPPRLPRPRPRPGFPPRP	0.336
RRIRWRPPRLPRPRPRPIEMPRP	0.467
RRIRQRPPRLPRPRPRPLTLPRP	-0.104
RRIRARPPRLPRPRPRPVRGPRP	0.945
RRIRFRPPRLPRPRPRPNWSPRP	-0.0531
RRIRARPPRLPRPRPRPCCFPRP	0.274
RRIRERPPRLPRPRPRPFEQPRP	-0.126
RRIRERPPRLPRPRPRPRRCPRP	0.0702
RRIRWRPPRLPRPRPRPELLPRP	0.485
RRIRKRPPRLPRPRPRPDPGPRP	0.335
RRIRVRPPRLPRPRPRPKFYPRP	-0.46
RRIRHRPPRLPRPRPRPGMHPRP	-0.01
RRIRERPPRLPRPRPRPSKIPRP	-0.506
RRIRERPPRLPRPRPRPRKDPRP	-0.245
RRIRYRPPRLPRPRPRPPKMPRP	0.28
RRIRTRPPRLPRPRPRPCYQPRP	-0.335
RRIRQRPPRLPRPRPRPQQIPRP	-0.0822
RRIRYRPPRLPRPRPRPSDKPRP	-0.194
RRIRMRPPRLPRPRPRPWDDPRP	0.533
RRIRDRPPRLPRPRPRPPGAPRP	0.564
RRIRRRPPRLPRPRPRPNSKPRP	-0.00313
RRIRMRPPRLPRPRPRPVTLPRP	-0.393

Sequence	shrunken log2 fold change
RRIRLRPPRLPRPRPRPALPPRP	0.128
RRIRTRPPRLPRPRPRPLEMPRP	0.0834
RRIRGRPPRLPRPRPRPGACPRP	0.911
RRIRVRPPRLPRPRPRPTMKPRP	-0.461
RRIRTRPPRLPRPRPRPPHAPRP	0.312
RRIRPRPPRLPRPRPRPTRPPRP	0.782
RRIRGRPPRLPRPRPRPWYHPRP	-0.347
RRIRNRPPRLPRPRPRPNWRPRP	0.216
RRIRIRPPRLPRPRPRPHHWPRP	-0.18
RRIRIRPPRLPRPRPRPGFDPRP	0.027
RRIRCRPPRLPRPRPRPIPLPRP	0.148
RRIRGRPPRLPRPRPRPTYVPRP	-0.144
RRIRKRPPRLPRPRPRPHNCPRP	0.0806
RRIRFRPPRLPRPRPRPMKGPRP	-0.0547
RRIRMRPPRLPRPRPRPEPMPRP	0.386
RRIRRRPPRLPRPRPRPRYRPRP	-0.0166
RRIRLRPPRLPRPRPRPFQHPRP	-0.175
RRIRKRPPRLPRPRPRPRWWPRP	0.316
RRIRPRPPRLPRPRPRPNVTPRP	0.209
RRIRSRPPRLPRPRPRPFRPPRP	-0.249
RRIRFRPPRLPRPRPRPLMVPRP	-0.38
RRIRLRPPRLPRPRPRPYMVPRP	-0.288
RRIRVRPPRLPRPRPRPMEFPRP	-0.03
RRIRNRPPRLPRPRPRPARSPRP	0.679
RRIRLRPPRLPRPRPRPDCRPRP	0.0593

Sequence	shrunken log2 fold change
RRIRKRPPRLPRPRPRPRNVPRP	0.132
RRIRLRPPRLPRPRPRPFPNPRP	0.203
RRIRPRPPRLPRPRPRPSQAPRP	0.106
RRIRQRPPRLPRPRPRPDPNPRP	-0.187
RRIRTRPPRLPRPRPRPEDTPRP	-0.045
RRIRRRPPRLPRPRPRPKKQPRP	-0.0969
RRIRNRPPRLPRPRPRPQMLPRP	-0.409
RRIRYRPPRLPRPRPRPMGIPRP	0.00902
RRIRLRPPRLPRPRPRPIRFPRP	-0.185
RRIRSRPPRLPRPRPRPGKKPRP	-0.0502
RRIRNRPPRLPRPRPRPVNTPRP	-0.0908
RRIRHRPPRLPRPRPRPETAPRP	0.346
RRIRPRPPRLPRPRPRPAEIPRP	0.0712
RRIRGRPPRLPRPRPRPLMQPRP	0.605
RRIRIRPPRLPRPRPRPKIIPRP	-0.468
RRIRERPPRLPRPRPRPDKYPRP	-0.449
RRIRCRPPRLPRPRPRPEHKPRP	-0.221
RRIRARPPRLPRPRPRPYSFPRP	-0.0794
RRIRNRPPRLPRPRPRPRDRPRP	-0.0372
RRIRTRPPRLPRPRPRPQFSPRP	-0.823
RRIRFRPPRLPRPRPRPFNLPRP	-0.66
RRIRSRPPRLPRPRPRPQNKPRP	-0.561
RRIRKRPPRLPRPRPRPKRQPRP	0.0282
RRIRDRPPRLPRPRPRPRHLPRP	-0.199
RRIRPRPPRLPRPRPRPLTMPRP	-0.186

Sequence	shrunken log2 fold change
RRIRERPPRLPRPRPRPCVTPRP	-0.322
RRIRLRPPRLPRPRPRPTSNPRP	-0.576
RRIRGRPPRLPRPRPRPIPGPRP	0.107
RRIRSRPPRLPRPRPRPFKSPRP	0.0547
RRIRLRPPRLPRPRPRPCVNPRP	-0.00681
RRIRVRPPRLPRPRPRPHWSPRP	-0.191
RRIRERPPRLPRPRPRPQSEPRP	-0.000579
RRIRFRPPRLPRPRPRPIMKPRP	-0.679
RRIRGRPPRLPRPRPRPLREPRP	1.85
RRIRNRPPRLPRPRPRPQWAPRP	-0.188
RRIRSRPPRLPRPRPRPWVEPRP	-0.214
RRIRSRPPRLPRPRPRPHLGPRP	-0.385
RRIRVRPPRLPRPRPRPRIEPRP	0.314
RRIRWRPPRLPRPRPRPEEPPRP	0.805
RRIRPRPPRLPRPRPRPQCDPRP	-0.254
RRIRKRPPRLPRPRPRPESFPRP	0.0651
RRIRMRPPRLPRPRPRPKWLPRP	0.612
RRIRNRPPRLPRPRPRPTRIPRP	-0.183
RRIRDRPPRLPRPRPRPQWFPRP	0.0117
RRIRIRPPRLPRPRPRPCDWPRP	0.00175
RRIRDRPPRLPRPRPRPSYGPRP	-0.0489
RRIRYRPPRLPRPRPRPLDPPRP	-0.307
RRIRSRPPRLPRPRPRPLWWPRP	0.35
RRIRIRPPRLPRPRPRPRYPPRP	-0.0444
RRIRFRPPRLPRPRPRPYRHPRP	-1.08

Sequence	shrunken log2 fold change
RRIRSRPPRLPRPRPRPWGLPRP	0.0137
RRIRDRPPRLPRPRPRPKRKPRP	0.0894
RRIRQRPPRLPRPRPRPAEHPRP	0.166
RRIRQRPPRLPRPRPRPGNKPRP	-0.596
RRIRFRPPRLPRPRPRPHTSPRP	-0.907
RRIRYRPPRLPRPRPRPVYMPRP	-1.34
RRIRTRPPRLPRPRPRPEVYPRP	-0.00166
RRIRGRPPRLPRPRPRPKGPPRP	0.331
RRIRGRPPRLPRPRPRPEPIPRP	0.296
RRIRCRPPRLPRPRPRPFKGPRP	0.0401
RRIRPRPPRLPRPRPRPPPKPRP	0.902
RRIRVRPPRLPRPRPRPIYLPRP	-0.543
RRIRGRPPRLPRPRPRPGMCPRP	0.489
RRIRQRPPRLPRPRPRPQDTPRP	-0.555
RRIRARPPRLPRPRPRPDNNPRP	-0.154
RRIRGRPPRLPRPRPRPPAHPRP	1.02
RRIRWRPPRLPRPRPRPHTWPRP	-0.134
RRIRRRPPRLPRPRPRPWGKPRP	-0.0259
RRIRRRPPRLPRPRPRPTGHPRP	0.236
RRIRMRPPRLPRPRPRPMGWPRP	0.808
RRIRTRPPRLPRPRPRPESGPRP	0.366
RRIRLRPPRLPRPRPRPEWPPRP	0.549
RRIRQRPPRLPRPRPRPWCCPRP	0.0636
RRIRCRPPRLPRPRPRPWKTPRP	-0.152
RRIRWRPPRLPRPRPRPRNFPRP	0.0292

Sequence	shrunken log2 fold change
RRIRHRPPRLPRPRPRPEGPPRP	-0.0401
RRIRSRPPRLPRPRPRPDCKPRP	-0.0745
RRIRFRPPRLPRPRPRPYRYPRP	0.0548
RRIRGRPPRLPRPRPRPAPIPRP	0.586
RRIRCRPPRLPRPRPRPTMHPRP	-0.112
RRIRMRPPRLPRPRPRPFYNPRP	-0.141
RRIRVRPPRLPRPRPRPLQKPRP	0.0697
RRIRKRPPRLPRPRPRPTACPRP	0.108
RRIRRRPPRLPRPRPRPEDVPRP	-0.0417
RRIRIRPPRLPRPRPRPIFCPRP	-0.0695
RRIRMRPPRLPRPRPRPPWMPRP	0.537
RRIRRRPPRLPRPRPRPKHDPRP	1.2
RRIRARPPRLPRPRPRPECAPRP	1.5
RRIRFRPPRLPRPRPRPINQPRP	-0.694
RRIRWRPPRLPRPRPRPHRVPRP	-0.0781
RRIRSRPPRLPRPRPRPHSAPRP	-0.891
RRIRHRPPRLPRPRPRPYFEPRP	-0.76
RRIRERPPRLPRPRPRPQWPPRP	-0.0675
RRIRRRPPRLPRPRPRPWDHPRP	0.0105
RRIRFRPPRLPRPRPRPVPWPRP	0.0558
RRIRFRPPRLPRPRPRPDRPPRP	0.033
RRIRQRPPRLPRPRPRPYVLPRP	-0.512
RRIRNRPPRLPRPRPRPAHKPRP	0.00838
RRIRRRPPRLPRPRPRPNNIPRP	-0.556
RRIRHRPPRLPRPRPRPPFYPRP	-0.288
